Data reported in publication PMC8786347 (Oncoimmunology, 2022).

Key:
Experiment in all cases: ELISA
mOX40-Fc = target: T1, mOX40-Fc (mouse, UniProt P47741 20-211)
T1 sequence (looked up): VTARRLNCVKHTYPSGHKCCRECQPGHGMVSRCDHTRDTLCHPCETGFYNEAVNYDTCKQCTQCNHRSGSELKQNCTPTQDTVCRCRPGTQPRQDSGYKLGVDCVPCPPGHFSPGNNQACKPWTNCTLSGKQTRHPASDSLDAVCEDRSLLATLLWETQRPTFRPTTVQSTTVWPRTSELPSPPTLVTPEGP

m4-1BB-Fc = target: T2, m4-1BB-Fc (mouse, UniProt P20334 24-187)
T2 sequence (looked up): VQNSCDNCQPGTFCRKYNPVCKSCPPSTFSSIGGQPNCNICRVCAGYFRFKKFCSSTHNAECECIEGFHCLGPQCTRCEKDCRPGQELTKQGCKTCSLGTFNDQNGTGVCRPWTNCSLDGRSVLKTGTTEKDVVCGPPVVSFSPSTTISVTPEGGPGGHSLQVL

CD27-moFc = target: T3, CD27-moFc (UniProt P26842 20-191)
T3 sequence (looked up): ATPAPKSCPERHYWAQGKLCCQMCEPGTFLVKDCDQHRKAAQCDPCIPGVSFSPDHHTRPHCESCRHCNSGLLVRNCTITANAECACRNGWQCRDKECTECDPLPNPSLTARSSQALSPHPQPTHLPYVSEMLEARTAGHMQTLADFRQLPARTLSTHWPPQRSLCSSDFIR

CD40-huFc = CD40-huFc (UniProt P25942 21-193)
CD40-huFc, sequence (P25942 21-193): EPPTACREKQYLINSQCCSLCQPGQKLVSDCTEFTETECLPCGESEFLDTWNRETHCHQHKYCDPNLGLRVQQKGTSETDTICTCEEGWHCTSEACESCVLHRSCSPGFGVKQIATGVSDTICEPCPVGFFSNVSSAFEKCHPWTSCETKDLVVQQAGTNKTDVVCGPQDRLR

CD40-moFc = CD40-moFc (UniProt P25942 21-193)
CD40-moFc, sequence (P25942 21-193): as above

OX40-moFc = target: T4, OX40-moFc (UniProt P43489 29-214)
T4 sequence (looked up): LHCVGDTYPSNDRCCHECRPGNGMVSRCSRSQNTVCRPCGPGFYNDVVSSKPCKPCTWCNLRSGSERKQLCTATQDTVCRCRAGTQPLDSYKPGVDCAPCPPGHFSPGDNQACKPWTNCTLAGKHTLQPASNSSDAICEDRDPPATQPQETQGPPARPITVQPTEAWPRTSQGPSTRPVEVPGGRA

mCD27-Fc = target: T5, mCD27-Fc (mouse, UniProt P41272 24-182)
T5 sequence (looked up): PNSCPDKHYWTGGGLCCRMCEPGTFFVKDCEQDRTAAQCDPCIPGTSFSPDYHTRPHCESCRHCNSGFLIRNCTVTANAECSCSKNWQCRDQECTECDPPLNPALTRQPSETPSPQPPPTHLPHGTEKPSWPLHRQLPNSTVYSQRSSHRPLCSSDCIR

mCD40-Fc = target: T6, mCD40-Fc (mouse, UniProt P27512 20-193)
T6 sequence (looked up): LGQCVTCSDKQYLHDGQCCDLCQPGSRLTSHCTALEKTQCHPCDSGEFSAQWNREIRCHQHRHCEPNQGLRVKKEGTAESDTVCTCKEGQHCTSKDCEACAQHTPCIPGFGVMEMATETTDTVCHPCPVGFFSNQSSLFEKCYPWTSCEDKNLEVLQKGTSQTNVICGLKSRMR

B1: msc4-1BBL-mscOX40L-mFc (Fc fusion)
chain 1: RTEPRPALTITTSPNLGTRENNADQVTPVSHIGCPNTTQQGSPVFAKLLAKNQASLCNTTLNWHSQDGAGSSYLSQGLRYEEDKKELVVDSPGLYYVFLELKLSPTFTNTGHKVQGWVSLVLQAKPQVDDFDNLALTVELFPCSMENKLVDRSWSQLLLLKAGHRLSVGLRAYLHGAQDAYRDWELSYPNTTSFGLFLVKPDNPWEGGGGSGGGGSGGGGSGGGGSRTEPRPALTITTSPNLGTRENNADQVTPVSHIGCPNTTQQGSPVFAKLLAKNQASLCNTTLNWHSQDGAGSSYLSQGLRYEEDKKELVVDSPGLYYVFLELKLSPTFTNTGHKVQGWVSLVLQAKPQVDDFDNLALTVELFPCSMENKLVDRSWSQLLLLKAGHRLSVGLRAYLHGAQDAYRDWELSYPNTTSFGLFLVKPDNPWEGGGGSGGGGSGGGGSGGGGSRTEPRPALTITTSPNLGTRENNADQVTPVSHIGCPNTTQQGSPVFAKLLAKNQASLCNTTLNWHSQDGAGSSYLSQGLRYEEDKKELVVDSPGLYYVFLELKLSPTFTNTGHKVQGWVSLVLQAKPQVDDFDNLALTVELFPCSMENKLVDRSWSQLLLLKAGHRLSVGLRAYLHGAQDAYRDWELSYPNTTSFGLFLVKPDNPWE
chain 2: SSSPAKDPPIQRLRGAVTRCEDGQLFISSYKNEYQTMEVQNNSVVIKCDGLYIIYLKGSFFQEVKIDLHFREDHNPISIPMLNDGRRIVFTVVASLAFKDKVYLTVNAPDTLCEHLQINDGELIVVQLTPGYCAPEGSYHSTVNQVPLGGGGSGGGGSGGGGSSSSPAKDPPIQRLRGAVTRCEDGQLFISSYKNEYQTMEVQNNSVVIKCDGLYIIYLKGSFFQEVKIDLHFREDHNPISIPMLNDGRRIVFTVVASLAFKDKVYLTVNAPDTLCEHLQINDGELIVVQLTPGYCAPEGSYHSTVNQVPLGGGGSGGGGSGGGGSSSSPAKDPPIQRLRGAVTRCEDGQLFISSYKNEYQTMEVQNNSVVIKCDGLYIIYLKGSFFQEVKIDLHFREDHNPISIPMLNDGRRIVFTVVASLAFKDKVYLTVNAPDTLCEHLQINDGELIVVQLTPGYCAPEGSYHSTVNQVPL
EC50 (mOX40-Fc): 55200 pM
EC50 (m4-1BB-Fc): 9200 pM

B2: scCD40L-scCD27L-Fc (Fc fusion, human)
chain 1: GDQNPQIAAHVISEASSKTTSVLQWAEKGYYTMSNNLVTLENGKQLTVKRQGLYYIYAQVTFCSNREASSQAPFIASLCLKSPGRFERILLRAANTHSSAKPCGQQSIHLGGVFELQPGASVFVNVTDPSQVSHGTGFTSFGLLKLGGGDQNPQIAAHVISEASSKTTSVLQWAEKGYYTMSNNLVTLENGKQLTVKRQGLYYIYAQVTFCSNREASSQAPFIASLCLKSPGRFERILLRAANTHSSAKPCGQQSIHLGGVFELQPGASVFVNVTDPSQVSHGTGFTSFGLLKLGGGDQNPQIAAHVISEASSKTTSVLQWAEKGYYTMSNNLVTLENGKQLTVKRQGLYYIYAQVTFCSNREASSQAPFIASLCLKSPGRFERILLRAANTHSSAKPCGQQSIHLGGVFELQPGASVFVNVTDPSQVSHGTGFTSFGLLKL
chain 2: SLGWDVAELQLNHTGPQQDPRLYWQGGPALGRSFLHGPELDKGQLRIHRDGIYMVHIQVTLAICSSTTASRHHPTTLAVGICSPASRSISLLRLSFHQGCTIASQRLTPLARGDTLCTNLTGTLLPSRNTDETFFGVQWVRPGGSLGWDVAELQLNHTGPQQDPRLYWQGGPALGRSFLHGPELDKGQLRIHRDGIYMVHIQVTLAICSSTTASRHHPTTLAVGICSPASRSISLLRLSFHQGCTIASQRLTPLARGDTLCTNLTGTLLPSRNTDETFFGVQWVRPGGSLGWDVAELQLNHTGPQQDPRLYWQGGPALGRSFLHGPELDKGQLRIHRDGIYMVHIQVTLAICSSTTASRHHPTTLAVGICSPASRSISLLRLSFHQGCTIASQRLTPLARGDTLCTNLTGTLLPSRNTDETFFGVQWVRP
EC50 (CD27-moFc): 300 pM
EC50 (CD40-huFc): 100 pM

B3: scCD40L-scOX40L-Fc (Fc fusion, human)
chain 1: GDQNPQIAAHVISEASSKTTSVLQWAEKGYYTMSNNLVTLENGKQLTVKRQGLYYIYAQVTFCSNREASSQAPFIASLCLKSPGRFERILLRAANTHSSAKPCGQQSIHLGGVFELQPGASVFVNVTDPSQVSHGTGFTSFGLLKLGGGDQNPQIAAHVISEASSKTTSVLQWAEKGYYTMSNNLVTLENGKQLTVKRQGLYYIYAQVTFCSNREASSQAPFIASLCLKSPGRFERILLRAANTHSSAKPCGQQSIHLGGVFELQPGASVFVNVTDPSQVSHGTGFTSFGLLKLGGGDQNPQIAAHVISEASSKTTSVLQWAEKGYYTMSNNLVTLENGKQLTVKRQGLYYIYAQVTFCSNREASSQAPFIASLCLKSPGRFERILLRAANTHSSAKPCGQQSIHLGGVFELQPGASVFVNVTDPSQVSHGTGFTSFGLLKL
chain 2: QVSHRYPRIQSIKVQFTEYKKEKGFILTSQKEDEIMKVQNNSVIINCDGFYLISLKGYFSQEVNISLHYQKDEEPLFQLKKVRSVNSLMVASLTYKDKVYLNVTTDNTSLDDFHVNGGELILIHQNPGEFCVLGGGGSGGGGSGGGGSQVSHRYPRIQSIKVQFTEYKKEKGFILTSQKEDEIMKVQNNSVIINCDGFYLISLKGYFSQEVNISLHYQKDEEPLFQLKKVRSVNSLMVASLTYKDKVYLNVTTDNTSLDDFHVNGGELILIHQNPGEFCVLGGGGSGGGGSGGGGSQVSHRYPRIQSIKVQFTEYKKEKGFILTSQKEDEIMKVQNNSVIINCDGFYLISLKGYFSQEVNISLHYQKDEEPLFQLKKVRSVNSLMVASLTYKDKVYLNVTTDNTSLDDFHVNGGELILIHQNPGEFCVL
EC50 (CD40-moFc): 300 pM
EC50 (OX40-moFc): 200 pM
EC50 (CD40-huFc): 500 pM

B4: mscCD40L-mscCD27L-mFc (Fc fusion)
chain 1: HRRLDKVEEEVNLHEDFVFIKKLKRCNKGEGSLSLLNCEEMRRQFEDLVKDITLNKEEKKENSFEMQRGDEDPQIAAHVVSEANSNAASVLQWAKKGYYTMKSNLVMLENGKQLTVKREGLYYVYTQVTFCSNREPSSQRPFIVGLWLKPSSGSERILLKAANTHSSSQLCEQQSVHLGGVFELQAGASVFVNVTEASQVIHRVGFSSFGLLKLGGHRRLDKVEEEVNLHEDFVFIKKLKRCNKGEGSLSLLNCEEMRRQFEDLVKDITLNKEEKKENSFEMQRGDEDPQIAAHVVSEANSNAASVLQWAKKGYYTMKSNLVMLENGKQLTVKREGLYYVYTQVTFCSNREPSSQRPFIVGLWLKPSSGSERILLKAANTHSSSQLCEQQSVHLGGVFELQAGASVFVNVTEASQVIHRVGFSSFGLLKLGGHRRLDKVEEEVNLHEDFVFIKKLKRCNKGEGSLSLLNCEEMRRQFEDLVKDITLNKEEKKENSFEMQRGDEDPQIAAHVVSEANSNAASVLQWAKKGYYTMKSNLVMLENGKQLTVKREGLYYVYTQVTFCSNREPSSQRPFIVGLWLKPSSGSERILLKAANTHSSSQLCEQQSVHLGGVFELQAGASVFVNVTEASQVIHRVGFSSFGLLKL
chain 2: SKQQQRLLEHPEPHTAELQLNLTVPRKDPTLRWGAGPALGRSFTHGPELEEGHLRIHQDGLYRLHIQVTLANCSSPGSTLQHRATLAVGICSPAAHGISLLRGRFGQDCTVALQRLTYLVHGDVLCTNLTLPLLPSRNADETFFGVQWICPGGSKQQQRLLEHPEPHTAELQLNLTVPRKDPTLRWGAGPALGRSFTHGPELEEGHLRIHQDGLYRLHIQVTLANCSSPGSTLQHRATLAVGICSPAAHGISLLRGRFGQDCTVALQRLTYLVHGDVLCTNLTLPLLPSRNADETFFGVQWICPGGSKQQQRLLEHPEPHTAELQLNLTVPRKDPTLRWGAGPALGRSFTHGPELEEGHLRIHQDGLYRLHIQVTLANCSSPGSTLQHRATLAVGICSPAAHGISLLRGRFGQDCTVALQRLTYLVHGDVLCTNLTLPLLPSRNADETFFGVQWICP
EC50 (mCD27-Fc): 400 pM
EC50 (mCD40-Fc): 1400 pM
